Our source for the switch fluorescence ratio values is the supplement of paper PMC10126150.

± gives the standard deviation of the averaged measurements.

The series concerns ATP. The series is described as follows: switch fluorescence ratio, 500 uM ATP over buffer (Cy3 cluster intensity, sum of 5 cycles each) (fold (ratio)); higher = stronger signal-on switching upon ATP binding; sequences stand for … in TCGTCGGCAGCGTCAGATGTGTATAAGAGACAGTTTTTTTTTTTTTTTTTTTTTTTTT…TC. The note with it: aptamer strand: ATP DNA aptamer (quencher-CACCTGGGGGAGTATTGCGGAGGAAGG + anchor), 100 nM annealed; ATP concentration: 500 uM. A digest of the protocol:
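After annealing to 100 nM quencher-labelled ATP aptamer, Cy3-labelled switching-strand clusters on a modified Illumina MiSeq flow-cell were imaged in selection buffer. A second image followed after 15 min with 500 uM ATP at 22 °C, and five such buffer/ATP cycles were done, each separated by NaOH stripping and re-annealing. The fluorescence ratio, averaged per switch-domain sequence, is summed target-cycle over summed buffer-cycle Cy3 intensity per cluster, with clusters outside 100-1000 RFU excluded.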
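Note: ATP exposure 15 min at 22 °C before imaging.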

As to TAGTTATTAC, the switch fluorescence ratio turned out to be 1.08 ± 0.14. Regarding TAGTTATTTG, the switch fluorescence ratio came to 0.993 ± 0.044.

Regarding TAGTTCGGGG, the switch fluorescence ratio came out at 1.01 ± 0.024. Consider TAGTTCTGTT, for which the switch fluorescence ratio is 0.983 ± 0.0077. For the sequence TAGTTGGTGG, the switch fluorescence ratio came to 0.954 ± 0.046. Regarding TAGTTTATCA, the switch fluorescence ratio was 1.001 ± 0.01. As for TAGTTTCGGC, the switch fluorescence ratio is 0.958 ± 0.011. On to TAGTTTGGCT, for which the switch fluorescence ratio is 1.02 ± 0.047. With TAGTTTGGGA, the switch fluorescence ratio was 1.01 ± 0.03. As to TAGTTTGGGG, the switch fluorescence ratio worked out at 0.999 ± 0.032. For TAGTTTGGGT the value was 0.974 ± 0.012; for TAGTTTGTTA, 0.987 ± 0.027; for TAGTTTTAT, 0.973 ± 0.016. Regarding TAGTTTTCGT, the switch fluorescence ratio turned out to be 0.9817 ± 0.0012. As to TAGTTTTGTA, the switch fluorescence ratio is 0.971 ± 0.05. For the sequence TAGTTTTTAA, the switch fluorescence ratio is 1.01 ± 0.008. For the sequence TAGTTTTTCT, the switch fluorescence ratio amounted to 0.971 ± 0.022. Consider TAGTTTTTTC, for which the switch fluorescence ratio was found to be 0.99 ± 0.021. For TATAAAAACG, the switch fluorescence ratio is 1.11 ± 0.2. On to TATAAAAATT, for which the switch fluorescence ratio came to 1.02 ± 0.025.

On to TATAAAAGAA, for which the switch fluorescence ratio came to 1.04 ± 0.053. In the case of TATAAAAGAC, the switch fluorescence ratio was 1.018 ± 0.01. Take TATAAAATGT: the switch fluorescence ratio came to 0.993 ± 0.036. For TATAAAGCAG the value was 1.03 ± 0.024. Regarding TATAAAGGGC, the switch fluorescence ratio turned out to be 1.01 ± 0.054. On to TATAAAGGGG, for which the switch fluorescence ratio worked out at 1 ± 0.025. For TATAAATGAA the value was 0.9921 ± 0.0043; for TATAAATGAT, 1.06 ± 0.047. Turning to TATAAATTTG, the switch fluorescence ratio was determined as 1.01 ± 0.016. Take TATAACATAT: the switch fluorescence ratio stood at 1.03 ± 0.041. In the case of TATAACATG, the switch fluorescence ratio amounted to 1.009 ± 0.0025.

As for TATAAGAGCC, the switch fluorescence ratio was found to be 0.984 ± 0.043.

Take TATAAGGGGC: the switch fluorescence ratio amounted to 0.997 ± 0.027. For TATAAGTGGT the value was 0.992 ± 0.023; for TATAAGTGTT, 1.002 ± 0.0067. With TATAATCCCT the figure was 1.02 ± 0.083; with TATAATTAAT, 0.982 ± 0.029. TATACCATTT: the switch fluorescence ratio worked out at 1.01 ± 0.015. Turning to TATACCTTAA, the switch fluorescence ratio was 1.051 ± 0.0042. Regarding TATACTATTG, the switch fluorescence ratio stood at 1.01 ± 0.048. On to TATACTCAGC, for which the switch fluorescence ratio is 1.03 ± 0.014.

In the case of TATACTGTTG, the switch fluorescence ratio turned out to be 0.976 ± 0.021. Regarding TATACTTGCC, the switch fluorescence ratio came to 1.04 ± 0.06. Turning to TATACTTTAT, the switch fluorescence ratio was 1.02 ± 0.037. Consider TATAGACAGG, for which the switch fluorescence ratio came to 0.989 ± 0.057. Consider TATAGAGGTT, for which the switch fluorescence ratio worked out at 0.992 ± 0.015. For TATAGCAGGG the value was 1.03 ± 0.018. TATAGCTACC: the switch fluorescence ratio came out at 1.13 ± 0.043. For the sequence TATAGGGAAA, the switch fluorescence ratio was 1.09 ± 0.11. Take TATAGGGAAG: the switch fluorescence ratio was determined as 1.02 ± 0.026.

Consider TATAGGGAGC, for which the switch fluorescence ratio was 0.947 ± 0.017. In the case of TATAGGGCGG, the switch fluorescence ratio came out at 1.13 ± 0.21.

Turning to TATAGGGGAT, the switch fluorescence ratio is 1.032 ± 0.0068. In the case of TATAGGGGGC, the switch fluorescence ratio is 1.03 ± 0.05. As to TATAGGTGTT, the switch fluorescence ratio came out at 1.05 ± 0.028. With TATAGTCTA the figure was 1.01 ± 0.031; with TATAGTGGAG, 1.024 ± 0.0069; with TATATAGAGC, 1.02 ± 0.011. As for TATATAGCGC, the switch fluorescence ratio was determined as 0.983 ± 0.044. As to TATATAGGTA, the switch fluorescence ratio came out at 1.01 ± 0.043. In the case of TATATATAGA, the switch fluorescence ratio came out at 1 ± 0.041. Take TATATATATG: the switch fluorescence ratio is 0.955 ± 0.031.

For TATATATTTA, the switch fluorescence ratio is 0.988 ± 0.024. Regarding TATATCAGTT, the switch fluorescence ratio worked out at 1.007 ± 0.0087.

Consider TATATGACGG, for which the switch fluorescence ratio was found to be 0.997 ± 0.027. With TATATGGATT the figure was 0.999 ± 0.015; with TATATGGCCC, 1.02 ± 0.02; with TATATGTATC, 0.9678 ± 0.0011. Take TATATTAAGA: the switch fluorescence ratio was determined as 1.01 ± 0.016. With TATATTAGCC, the switch fluorescence ratio turned out to be 1.03 ± 0.039.

For the sequence TATATTGAAC, the switch fluorescence ratio came out at 1.022 ± 0.0028.

On to TATATTGCGT, for which the switch fluorescence ratio amounted to 0.9711 ± 0.0073. Take TATATTGTA: the switch fluorescence ratio turned out to be 0.986 ± 0.03. As for TATATTTGTT, the switch fluorescence ratio came to 0.997 ± 0.039. For the sequence TATATTTTAT, the switch fluorescence ratio is 0.982 ± 0.035. Consider TATATTTTGC, for which the switch fluorescence ratio is 0.994 ± 0.026. In the case of TATATTTTGT, the switch fluorescence ratio is 1.02 ± 0.016. For the sequence TATCAAAGAT, the switch fluorescence ratio stood at 1 ± 0.02. Consider TATCAATTTT, for which the switch fluorescence ratio is 1 ± 0.03. With TATCACATTT, the switch fluorescence ratio was determined as 1.02 ± 0.018. With TATCACTAGG, the switch fluorescence ratio stood at 1.02 ± 0.0022.

As for TATCACTTTC, the switch fluorescence ratio came to 1.06 ± 0.033. For TATCATGTGT, the switch fluorescence ratio turned out to be 0.977 ± 0.03. For the sequence TATCATTTTT, the switch fluorescence ratio is 1 ± 0.011. On to TATCCACATT, for which the switch fluorescence ratio was determined as 1.02 ± 0.019. Take TATCCATGGG: the switch fluorescence ratio amounted to 0.978 ± 0.03. For TATCCGACAT, the switch fluorescence ratio worked out at 1.15 ± 0.039. For TATCCGTGCT, the switch fluorescence ratio was found to be 1 ± 0.029. As for TATCCTGGCT, the switch fluorescence ratio is 0.9961 ± 0.0089. For TATCGAAGCG the value was 0.969 ± 0.058; for TATCGAAGGT, 0.986 ± 0.017; for TATCGAATTA, 0.987 ± 0.017. As for TATCGAGATA, the switch fluorescence ratio was found to be 1.02 ± 0.04.

As for TATCGCTTGG, the switch fluorescence ratio came to 1 ± 0.018. Take TATCGGCAGC: the switch fluorescence ratio came out at 1.07 ± 0.043.

On to TATCGGGATG, for which the switch fluorescence ratio is 0.956 ± 0.03. With TATCGGGGGG the figure was 0.996 ± 0.043; with TATCGTACAT, 1.11 ± 0.023. Consider TATCGTATGT, for which the switch fluorescence ratio was 0.991 ± 0.027. For TATCGTTGTA, the switch fluorescence ratio was found to be 0.93881 ± 0.00024. TATCTATATT: the switch fluorescence ratio amounted to 1 ± 0.016. Regarding TATCTATGAG, the switch fluorescence ratio was 1.01 ± 0.046. TATCTGGCTT: the switch fluorescence ratio turned out to be 1.019 ± 0.0013. As for TATCTGGGTC, the switch fluorescence ratio was 1.02 ± 0.067. On to TATCTTCTAT, for which the switch fluorescence ratio turned out to be 1.035 ± 0.0096. As to TATGAAGCCG, the switch fluorescence ratio came to 1.06 ± 0.044. As to TATGAAGCCT, the switch fluorescence ratio worked out at 1.16 ± 0.02.

For TATGAATATT, the switch fluorescence ratio was determined as 0.985 ± 0.027. Consider TATGAATGTG, for which the switch fluorescence ratio turned out to be 0.991 ± 0.022. On to TATGACGCAG, for which the switch fluorescence ratio worked out at 0.993 ± 0.011. For TATGACTCGT, the switch fluorescence ratio is 0.99 ± 0.021.

As for TATGAGCAGC, the switch fluorescence ratio is 1.01 ± 0.066. Turning to TATGAGGGG, the switch fluorescence ratio was found to be 0.999 ± 0.027. As for TATGAGTAGG, the switch fluorescence ratio came to 0.995 ± 0.015.

In the case of TATGAGTATT, the switch fluorescence ratio is 0.9875 ± 0.0026.

Consider TATGATATGG, for which the switch fluorescence ratio was 1.04 ± 0.025.

With TATGATATTA, the switch fluorescence ratio turned out to be 0.9907 ± 0.0064. TATGATGCTA: the switch fluorescence ratio was determined as 1.03 ± 0.088.

TATGATGGAA: the switch fluorescence ratio is 0.966 ± 0.024. As for TATGATGGTG, the switch fluorescence ratio was 1.04 ± 0.035.
